T1: human CD79b recombinant protein (human, UniProt P40259 29-159, limits assumed)
T1 construct: Coated on ELISA plates at 1 ug/ml
T1 sequence (looked up): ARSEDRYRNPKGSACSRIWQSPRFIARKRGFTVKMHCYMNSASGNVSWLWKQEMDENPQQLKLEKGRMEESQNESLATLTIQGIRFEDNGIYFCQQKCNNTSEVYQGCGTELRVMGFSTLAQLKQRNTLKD

B1: Pola/msnCD3 (bispecific antibody, human IgG1, kappa, N297G)
light: DIQLTQSPSSLSASVGDRVTITCKASQSVDYEGDSFLNWYQQKPGKAPKLLIYAASNLESGVPSRFSGSGSGTDFTLTISSLQPEDFATYYCQQSNEDPLTFGQGTKVEIKRTVAAPSVFIFPPSDEQLKSGTASVVCLLNNFYPREAKVQWKVDNALQSGNSQESVTEQDSKDSTYSLSSTLTLSKADYEKHKVYACEVTHQGLSSPVTKSFNRGEC
heavy: EVQLVESGGGLVQPGGSLRLSCAASGYTFSSYWIEWVRQAPGKGLEWIGEILPGGGDTNYNEIFKGRATFSADTSKNTAYLQMNSLRAEDTAVYYCTRRVPIRLDYWGQGTLVTVSSASTKGPSVFPLAPSSKSTSGGTAALGCLVKDYFPEPVTVSWSSGALTSGVHTFPAVLQSSGLYSLSSVVTVPSSSLGTQTYICNVNHKPSNTKVDKKVEPKSCDKTHTCPPCPAPELLGGPSVFLFPPKPKDTLMISRTPEVTCVVVDVSHEDPEVKFNWYVDGVEVHNAKTKPREEQYGSTYRVVSVLTVLHQDWLNGKEYKCKVSNKALPAPIEKTISKAKGQPREPQVYTLPPSRDELTKNQVSLSCAVKGFYPSDIAVEWESNGQPENNYKTTPPVLDSDGSFFLVSKLTVDKSRWQQGNVFSCSVMHEALHNRFTQKSLSLSPGK
chain: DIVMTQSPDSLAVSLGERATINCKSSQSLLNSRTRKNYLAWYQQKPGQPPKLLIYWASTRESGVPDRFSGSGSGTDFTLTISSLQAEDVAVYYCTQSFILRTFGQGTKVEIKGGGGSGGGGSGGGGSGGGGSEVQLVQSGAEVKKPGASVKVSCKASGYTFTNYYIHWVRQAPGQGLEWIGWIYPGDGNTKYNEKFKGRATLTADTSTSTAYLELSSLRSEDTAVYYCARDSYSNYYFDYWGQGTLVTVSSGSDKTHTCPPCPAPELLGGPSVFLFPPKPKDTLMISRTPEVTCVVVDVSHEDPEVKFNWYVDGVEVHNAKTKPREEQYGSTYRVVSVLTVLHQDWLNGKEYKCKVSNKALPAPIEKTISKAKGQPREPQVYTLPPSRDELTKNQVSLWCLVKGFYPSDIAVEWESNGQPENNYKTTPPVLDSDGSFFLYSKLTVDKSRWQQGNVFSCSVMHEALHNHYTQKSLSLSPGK
notes: also called CD79b/CD3 bispecific antibody Pola/msnCD3
B2: 23D8/TRX4 (bispecific antibody, human IgG1, kappa, N297G)
light: AYDMTQTPASVEVAVGGTVTIKCQASQSISDNLSWYQQKPGQPPKLLIYDASDLASGVPSRFSGSGSGTEFTLTISDLEPADAATYYCQQDWISSNVDNTFGGGTEVVVKRTVAAPSVFIFPPSDEQLKSGTASVVCLLNNFYPREAKVQWKVDNALQSGNSQESVTEQDSKDSTYSLSSTLTLSKADYEKHKVYACEVTHQGLSSPVTKSFNRGEC
heavy: QSLEESGGGLVTPGGTLTLTCTVSGLSLSSNAINWVRQAPGKGLEWIGMIYSGGRIEYASWAKGRFTISKTSTTVDLKITSPTTEDTATYFCAKGMSPSAHSSDIWGPGTLVTVSASTKGPSVFPLAPSSKSTSGGTAALGCLVKDYFPEPVTVSWSSGALTSGVHTFPAVLQSSGLYSLSSVVTVPSSSLGTQTYICNVNHKPSNTKVDKKVEPKSCDKTHTCPPCPAPELLGGPSVFLFPPKPKDTLMISRTPEVTCVVVDVSHEDPEVKFNWYVDGVEVHNAKTKPREEQYGSTYRVVSVLTVLHQDWLNGKEYKCKVSNKALPAPIEKTISKAKGQPREPQVYTLPPSRDELTKNQVSLSCAVKGFYPSDIAVEWESNGQPENNYKTTPPVLDSDGSFFLVSKLTVDKSRWQQGNVFSCSVMHEALHNRFTQKSLSLSPGK
chain: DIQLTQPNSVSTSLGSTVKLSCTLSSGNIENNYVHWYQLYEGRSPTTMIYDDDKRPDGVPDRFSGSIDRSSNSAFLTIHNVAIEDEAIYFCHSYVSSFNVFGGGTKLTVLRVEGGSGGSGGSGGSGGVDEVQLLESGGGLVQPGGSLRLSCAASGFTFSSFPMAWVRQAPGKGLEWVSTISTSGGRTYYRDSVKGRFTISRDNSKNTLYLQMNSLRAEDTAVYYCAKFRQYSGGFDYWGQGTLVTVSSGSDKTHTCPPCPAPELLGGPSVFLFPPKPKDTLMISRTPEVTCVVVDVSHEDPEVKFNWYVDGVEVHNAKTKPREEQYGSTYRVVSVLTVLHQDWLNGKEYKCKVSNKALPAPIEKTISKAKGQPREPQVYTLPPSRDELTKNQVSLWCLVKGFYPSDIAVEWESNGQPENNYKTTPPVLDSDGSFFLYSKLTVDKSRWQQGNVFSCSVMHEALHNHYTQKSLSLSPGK
notes: Knob-into-hole format: anti-CD79b Fab arm (rabbit 23D8 variable regions on human IgG1/kappa) and anti-CD3 TRX4 (otelixizumab) scFv-Fc
B3: 23D8/38E4 (bispecific antibody, human IgG1, kappa, N297G)
light: AYDMTQTPASVEVAVGGTVTIKCQASQSISDNLSWYQQKPGQPPKLLIYDASDLASGVPSRFSGSGSGTEFTLTISDLEPADAATYYCQQDWISSNVDNTFGGGTEVVVKRTVAAPSVFIFPPSDEQLKSGTASVVCLLNNFYPREAKVQWKVDNALQSGNSQESVTEQDSKDSTYSLSSTLTLSKADYEKHKVYACEVTHQGLSSPVTKSFNRGEC
heavy: QSLEESGGGLVTPGGTLTLTCTVSGLSLSSNAINWVRQAPGKGLEWIGMIYSGGRIEYASWAKGRFTISKTSTTVDLKITSPTTEDTATYFCAKGMSPSAHSSDIWGPGTLVTVSASTKGPSVFPLAPSSKSTSGGTAALGCLVKDYFPEPVTVSWSSGALTSGVHTFPAVLQSSGLYSLSSVVTVPSSSLGTQTYICNVNHKPSNTKVDKKVEPKSCDKTHTCPPCPAPELLGGPSVFLFPPKPKDTLMISRTPEVTCVVVDVSHEDPEVKFNWYVDGVEVHNAKTKPREEQYGSTYRVVSVLTVLHQDWLNGKEYKCKVSNKALPAPIEKTISKAKGQPREPQVYTLPPSRDELTKNQVSLSCAVKGFYPSDIAVEWESNGQPENNYKTTPPVLDSDGSFFLVSKLTVDKSRWQQGNVFSCSVMHEALHNRFTQKSLSLSPGK
chain: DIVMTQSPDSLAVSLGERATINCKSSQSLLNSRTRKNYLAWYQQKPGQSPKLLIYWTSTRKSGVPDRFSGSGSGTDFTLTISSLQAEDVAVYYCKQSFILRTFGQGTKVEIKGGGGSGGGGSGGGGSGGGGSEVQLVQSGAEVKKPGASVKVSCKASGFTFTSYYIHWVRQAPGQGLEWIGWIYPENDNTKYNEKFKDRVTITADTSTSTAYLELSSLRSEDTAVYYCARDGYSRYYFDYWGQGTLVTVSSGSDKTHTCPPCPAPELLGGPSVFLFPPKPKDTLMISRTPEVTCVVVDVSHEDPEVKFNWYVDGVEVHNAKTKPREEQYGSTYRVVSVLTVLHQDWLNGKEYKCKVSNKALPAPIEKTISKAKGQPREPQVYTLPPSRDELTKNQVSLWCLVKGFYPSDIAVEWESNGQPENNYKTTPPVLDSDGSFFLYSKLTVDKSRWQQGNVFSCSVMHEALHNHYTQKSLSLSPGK
notes: Knob-into-hole format: anti-CD79b 23D8 Fab arm and anti-CD3 38E4 scFv-Fc; also called CD79b/CD3 bispecific antibody 23D8/38E4
B4: 23D8/msnCD3 (bispecific antibody, human IgG1, kappa, N297G)
light: AYDMTQTPASVEVAVGGTVTIKCQASQSISDNLSWYQQKPGQPPKLLIYDASDLASGVPSRFSGSGSGTEFTLTISDLEPADAATYYCQQDWISSNVDNTFGGGTEVVVKRTVAAPSVFIFPPSDEQLKSGTASVVCLLNNFYPREAKVQWKVDNALQSGNSQESVTEQDSKDSTYSLSSTLTLSKADYEKHKVYACEVTHQGLSSPVTKSFNRGEC
heavy: QSLEESGGGLVTPGGTLTLTCTVSGLSLSSNAINWVRQAPGKGLEWIGMIYSGGRIEYASWAKGRFTISKTSTTVDLKITSPTTEDTATYFCAKGMSPSAHSSDIWGPGTLVTVSASTKGPSVFPLAPSSKSTSGGTAALGCLVKDYFPEPVTVSWSSGALTSGVHTFPAVLQSSGLYSLSSVVTVPSSSLGTQTYICNVNHKPSNTKVDKKVEPKSCDKTHTCPPCPAPELLGGPSVFLFPPKPKDTLMISRTPEVTCVVVDVSHEDPEVKFNWYVDGVEVHNAKTKPREEQYGSTYRVVSVLTVLHQDWLNGKEYKCKVSNKALPAPIEKTISKAKGQPREPQVYTLPPSRDELTKNQVSLSCAVKGFYPSDIAVEWESNGQPENNYKTTPPVLDSDGSFFLVSKLTVDKSRWQQGNVFSCSVMHEALHNRFTQKSLSLSPGK
chain: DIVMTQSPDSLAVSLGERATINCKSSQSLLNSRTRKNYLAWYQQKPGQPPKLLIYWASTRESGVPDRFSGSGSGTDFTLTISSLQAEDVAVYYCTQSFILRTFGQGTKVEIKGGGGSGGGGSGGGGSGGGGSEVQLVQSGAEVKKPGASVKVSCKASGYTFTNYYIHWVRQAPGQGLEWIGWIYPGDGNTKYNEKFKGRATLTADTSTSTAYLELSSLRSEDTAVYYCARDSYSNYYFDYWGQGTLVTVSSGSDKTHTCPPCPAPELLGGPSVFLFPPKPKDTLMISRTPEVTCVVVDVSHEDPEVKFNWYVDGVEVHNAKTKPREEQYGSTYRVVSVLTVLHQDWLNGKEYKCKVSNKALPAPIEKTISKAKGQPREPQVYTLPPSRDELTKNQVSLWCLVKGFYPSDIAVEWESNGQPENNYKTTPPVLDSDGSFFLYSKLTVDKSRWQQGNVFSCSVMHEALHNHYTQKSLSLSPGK
notes: also called CD79b/CD3 bispecific antibody 23D8/msnCD3

The binders below were run against T1, human CD79b recombinant protein (assay: ELISA, coated human CD79b recombinant protein).
Protocol: The binding affinities of CD79b/CD3 bispecific antibodies to human CD79b recombinant protein were tested by ELISA. 1 μg/ml (in PBS buffer) of human CD79b recombinant protein was coated on ELISA plates overnight. ELISA plates were washed and blocked with blocking buffer (PBS+1% BSA) and then incubated with serial dilutions of primary CD79b/CD3 bispecific antibodies.

Binding result, binds:
B1, B2, B3, B4

Source: patent publication US20250304687A1 (LTZ THERAPEUTICS, published 2025)
